Values quoted from earlier work, collected in article PMC9442343.

Target: IL-18 (Homo sapiens) (UniProt Q14116)
Sequence (Q14116 37-193): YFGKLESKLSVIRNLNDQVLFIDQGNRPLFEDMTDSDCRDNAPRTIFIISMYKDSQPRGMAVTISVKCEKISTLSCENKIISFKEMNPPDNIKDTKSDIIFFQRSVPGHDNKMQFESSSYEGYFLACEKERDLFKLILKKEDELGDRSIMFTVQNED

Sequence of IL-18BP (O95998 31-194): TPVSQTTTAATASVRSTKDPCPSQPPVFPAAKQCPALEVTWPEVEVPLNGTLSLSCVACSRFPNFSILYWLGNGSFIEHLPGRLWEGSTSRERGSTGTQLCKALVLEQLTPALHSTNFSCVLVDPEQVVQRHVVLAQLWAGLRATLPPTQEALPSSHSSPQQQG

**Q.** With IL-18BP (from UniProt O95998) as the substance, how does the Kd read?
**A.** 0.4 nM
